The data set is described as follows: soluble on expression in E. coli; label from the status in PepcDB or PDB records.
In the case of “MGSDKIHHHHHHMDSAYVFDSEQATKLLMKNYELVKTSGVSFIDKRIRFLIARLFAGNNEVVDPEEFSEINKEIKRQLGMFTALNGNVRASLVGLLMANDNASRESVQQVIANYNTLIQAGFQRTEYTYFAAYLLLESENPKKTARKAKTIHQLFKKDHPFLTKSEDVTTAVFLANLPEENTTKLAEITEYYFQEFAAKGFRKNDSLQFLATTGTLLYGEKDSKFIRRVDNIVEELRQKGIKVKPLHYSSIGILAFVMDARKIDSGLVNLIDELQQQPGLRFGREFVTALAISLYTEKQSGQMSKEQLEGLMVNVHILIAMEQAAAVSAAAAASAAAASS”, the “soluble on expression in E. coli” value is “not soluble”.

For “MPSGGQRKHTISNKTRKRPGKDLDQIHEDLKPEKAAKLLQQEIDYDLPGNGQFYCIECERHFVDEKTRQLHRKTKLHKNRVKTLKEVPYTQAEANAAGGSGFFPAITLKTRVELPKQPEIPIPVVAET”, the “soluble on expression in E. coli” value is given as “soluble”.

As to “MSPPLAEERLTRIVQLLAERGTLRTAALTELLGVSSATIRRDLDVLAGRGLIRKLHGGAALAAPEPEAPLNQDQFYRDRQQVNHLGKQRLAGRALELIAPGQTLYLDAGTTALALAEALQRTPQLTRTLRVVTHGIDVAYVLNGECALYVVGGEVYGSTYSLTGPDALSTVSRYNYDLFFVSCTSIDPAGRLTNSNSVEAQQKASILRQSRRSVLIADQSKWGPPGFAPFAGFAEVSAWVTDRAPATARAAFEQAGVTVLEADASARELSADLEHHHHHH”, the “soluble on expression in E. coli” value was “soluble”.

On to “MSEPLHALARQLEQAIRASEPFQQLKRAYEDVRRDETAYRMFANVRDIQLRLHEKQMRGAAILPDEIEQAQKAMALAQQNEKLARLMALEQQMSITIAEVQQIAMKPLEELHRSFMEGR”, for which the “soluble on expression in E. coli” value is “soluble”.

As to “ASIKENSYFAGGVKSLGFNQHGQDVSVGVMLPGEYTFGTQAPERMTVVKGALVVKRVGEADWTTYSSGESFDVEGNSSFELQVKDATAYLCEYL”, the “soluble on expression in E. coli” value is given as “soluble”.

For “MGSDKIHHHHHHMSCKAFQGQTLREHIEAMLAAWEIVKNKYIPSIIRVMKTVGVKFTEEDADKFMKTLIILHDVGKCSEVYQKHLSNNEPLRGFRHELVSAYYAYNILKDMFKDETIAFIGALVVMMHHEPILMGQIRSLDKEELTPEVVLDKLRTFNGVMEGTESFIKSMIKEKLGVIPKVPSPTQEDVLREVIRLSVLARHRPDSGKLRMVVGALLIPLVLCDYKGAKEREGESPKFAEVLRVEMMK”, the “soluble on expression in E. coli” value is given as “not soluble”.

For the sequence “MGSDKIHHHHHHMEVQLPKIKTVRVMLAGMTAQQESVFKMAFKMHNTTRYETVSPSDGSAVPDLVLADTDAEGGFELWKELAGRYKAIPVAVCSEKVPDSEVPYLPKPIRFETLFPMLRKLLQGENVYGKSFIAPADRSAKNNGNVQRTVTIRQFNPNKGLLGALRFAEKNRQDIAILHGNKPVLNCFPLDTTGFADRKCVKTRRIVQRRKFAGQLQDCSR”, the “soluble on expression in E. coli” value is listed as “not soluble”.

For the sequence “MFQNHKIMDLEVRTRLDDNRNLREVRIIPLGSGYNVGIVYSKEISDISDLNPKRILGIDMGVRNIVTIGNNMSEEGIAVKGGVLRSINQYFNKELSKLKSVSDRQNDGKGNTRRIKNLYAVRNGKIKDIMHKLSRAIIRYALSMNVDTIVIGHSQGWKHTPDMGKKNNQNFVQIPFNILIEQIRYKGQEAGINVIVLDESYTSVCSFIDNESIEKHETYMGKRIKRGIFRSHKGILIHADLNALYNTIKKAISEAFADGIEGIGLYPRSLSIREMITSKGLRLEHHHHHH”, the “soluble on expression in E. coli” value is on record as “soluble”.

In the case of “MSLQIVPYLIFNGNCREAFSCYHQHLGGTLEAMLPFGDSPECGDIPADWKDKIMHARLVVGSFALMASDNHPAYPYEGIKGCSISLNVDSKAEAERLFNALAEGGSVQMPLGPTFWAASFGMFTDRFGVAWMVNCEQDREGGSHHHHHH”, the “soluble on expression in E. coli” value was “soluble”.

Turning to “MGSSHHHHHHGGTGENLYFQGGSGMSRVPRPHIHQRISVEDIMKGNRRTLAKAITLAESSNPADSTRLGNLLREIHQMATVRTVPRFALSGSPGSGKSSLLDTLGYYLCEKKNMHVGVLAVDPSSTITHGSILGDKTRMEKLGTHLNSYIRPSPSGGHLGGVTSRAWEALEIFEAARFDVVFVETVGVGQSETQCKDLTDMMILLVPPASGDELQGIKKGVVEVADMVVVTKNDGRRKPLVQQTMSAYARAVMYTEEKQGFEKPVIAVSAEEGTNVPELWEAMLKMWNARLESGQIAHLRRAQSTKHFYNYFEMELLAKARRMTNLEMQNMAHRVWEHEMTPREAGDIMVLRTLREHLAADAAVQHDAGKRA”, the “soluble on expression in E. coli” value is listed as “not soluble”.

For the sequence “RAGYWEWNVENGTILIDRQWAVISGYNSADFDMLTMEQWRELCHPADLGVVTKSIEELLDGSMERLELELRVRHKNGEWIRVLDCGKVTGRSK”, the “soluble on expression in E. coli” value was “not soluble”.

In the case of “MGSDKIHHHHHHMSDEGRHKPTSAPNRVFMMKGMDKLRYQQDFLNIRPIFTAGEQEYLTGLSDRLPLSVLTGSVRNIEEIGIDFVYSSAKLEGNTYNQYDTQALLKLGQTAGGKLYSDAVMLINLRESYRHLLSGLDSPEPFDWLDFLKTTHSLISENLLEKGSGGVVRRDSVTISGTDYTPLSNPQSLDTELKWLLQEAPKIENPFDRAVYLHNNLAYLQYFKDCNKRTARNCMTLSLMRSGFFPCVFSPDSYPAYAEAVVAYYETGDYGLFKKYFISAYENTVNKYGPQPDMDIFRNFSL”, the “soluble on expression in E. coli” value is listed as “not soluble”.

For “MIYAGILAGGTGTRMGISNLPKQFLELGDRPILIHTIEKFVLEPSIEKIVVGVHGDWVSHAEDLVDKYLPLYKERIIITKGGADRNTSIKNIIEAIDAYRPLTPEDIVVTHDSVRPFITLRMIQDNIQLAQNHDAVDTVVEAVDTIVESTNGQFITDIPNRAHLYQGQTPQTFRCKDFMDLYGSLSDEEKEILTDACKIFVIKGKDVALAKGEYSNLKITTVTDLKIAKSMIEKD”, the “soluble on expression in E. coli” value is “soluble”.

Regarding “MKIAITGATGFVGQRLVERLQAEGHELRILSQRPTVAQQLTGCQVFDTATETSWLAALEGADAVVNLAGEPIAEQRWTPAQKQRLKNSRVQTTRALVTAITAATQKPQVLVTASAIGYYGTSETAQFTEESAAGQDYLAEICQAWEQEAQAVTVSGTRLVTLRIGIVVGPGGAIGKMLGPFKLFAGGPIGSGRQWVSWIQREDLVSLILEAIANPSYQGTYNATAPQAVRMADLSATLGEVLQRPSWLPVPAFALEALLGEGALLVLEGQQVLPKRLEAAGFQFRYPDLKSALQQFLPLEHHHHHH”, the “soluble on expression in E. coli” value is “not soluble”.

Consider “MGSDKIHHHHHHMTTVLEKFEKLKTEHAPGQEVRQKTPAFEELLIGEKLEGRTVDFSHGDVDAFLPTPGAFEEFSDGVHSGGKQAYTVYRGLADLREILSVRLTSFTGAPVNAADNLIITPGTQGALFLSVAATVAAGDKVAIVQPDYFANRKLVEFFEAEMLPVQLDYLGTDKAAGLDLNQLEAAFRDGARVFVFSNPNNPTGAVYSTEEIDAIAALADRYGAMVIVDQLYSRLLYEGTEYQHLRAVGGTGRDNVITIMGPSKTESLSGYRLGVAFGPSSVIERMERLQAIVSLRAAGYNQAVLQTWFSEPDGWMSERIKLHQAIRDDLLTRFRARADVAVRTPQAGSYMFAKLPRLRVSPIDFVKILRHQATVIVTPGSEFSPHTASSIRLNFSQNHAAATGAVERLVTLIERYREARP”, for which the “soluble on expression in E. coli” value was “not soluble”.

As to “MFQIGEALMGQGSELAHVDLMIGDKGGPVGQAFANGLTQLSAGHTPLLSVIRPNLPPKPSTLIIPKVTVKNMDQAARIFGPAQSAVAKAVADSVEEGVIPKDQVEDLVIVASVFIHPEAQDYNKIYRYNYGATKLAIKRALEGFPDIDTVLEESNKSTHAIMGFKVTRLWDPPYLQIAFDNPNLEFVLSAISEIPKSDHVIIEAGTPLIKRYGTDVISKIRQVRPDAFIVADLKTLDTGNLEARMVADAAGDAIVVSALAPISTIDKLIEEAHKTGIYAVMDTLNQQDPISVLKQLKVMPDVIELHRGIDIEGTEHAWGNIGEIKKIAPKALVAVAGGVRLDKVPVALSQGADILVVGRAITNAKDVREMAEQFINSLNKPEIDQFRVMTDF”, the “soluble on expression in E. coli” value was “not soluble”.

For “MAHHHHHHMSVPEWARSEHSIEEAKEYLRTGNSVDFFELVSSHILREHPLDVAAFALDLVERISKLGNTLSARDYHPKRVEDNKYLQEKNVCEFLNEWILALLKERPDTDEARMSFHKRYLKSLVDGGGCSQCTSVN”, the “soluble on expression in E. coli” value is reported as “not soluble”.

In the case of “MRTLLIRYILWRNDGDPSYYNDDFKKLILFDELVDDDDVCTLIKNMRMTLSDGPLLDRLNQPVNNVEDVKRMIAISAKVARDIGRRSEIRWEDSFTILFRMIEKYFDDLMTDLYGEK”, the “soluble on expression in E. coli” value is “not soluble”.

Turning to “MNRNDAYHTLISEICALSLISEPERFYESANFKISDVDFTLHYQDRDEGRAILIYGDMGALPARNRDSALLALMDINFHMFSGAHSPAFSWNAQTGRVLLMGSIGLERATAEGVLLLMKSFADLAREWREHGFMGPVGAAGAPVNMPASQATTRDTPASSGRFQ”, the “soluble on expression in E. coli” value was “not soluble”.

With “MGSDKIHHHHHHMAISRLLVEKFRNLTAVDLDFDPCFNFLIGNNGSGKTSLLEAIFYLGHGRSFKSAVTNRIISYDEPHFTLFGQIQESQHQWSIGLQKLRQGNTLVKINGEDGNKISDLAHLLPMQLITPEGLTLLNGGPSYRRAFLDWGLFHHQTSFYSAWSNLNRLLKQRNAALAQNQPYSAIKIWDVELAKLAHQVSEWRAEYAEALSPEIEQTCQLFLPELEINVSFHQGWEKNADYYEILQQNFERDRALNYTFSGPQKADFRFKAQGLPVEDVLSRGQLKLLMCALRLAQGEHLMKEKQRHCIFLIDDFASELDQYKRALLAERLQQSGSQVFVTAITQRQLKEMQVENKKMFSVHNGIINALN”, the “soluble on expression in E. coli” value is given as “not soluble”.

For “MVMETESKFHVLAVDDSLFDRKMIERLLQKSSCQVTTVDSGSKALEFLGLRVDDNDPNALSTSPQIHQEVEINLIITDYCMPGMTGYDLLKKVKESAAFRSIPVVIMSSENVPARISRCLEEGAEEFFLKPVKLADLTKLKPHMMKTKLKKESEKPVAIEEIVVSKPEIEEEEEESSVIEILPLHQEIESEQLEPMLSSNKRKAMEEVVSTDRSRPKYNDITTSV”, the “soluble on expression in E. coli” value is “not soluble”.

For the sequence “MSIEIANIKKSFGRTQVLNDISLDIPSGQMVALLGPSGSGKTTLLRIIAGLEHQTSGHIRFHGTDVSRLHARDRKVGFVFQHYALFRHMTVFDNIAFGLTVLPRRERPNAAAIKAKVTKLLEMVQLAHLADRYPAQLSGGQKQRVALARALAVEPQILLLDEPFGALDAQVRKELRRWLRQLHEELKFTSVFVTHDQEEATEVADRVVVMSQGNIEQADAPDQVWREPATRFVLEFMGEVNRLQGTIRGGQFHVGAHRWPLGYTPAYQGPVDLFLRPWEVDISRRTSLDSPLPVQVLEASPKGHYTQLVVQPLGWYNEPLTVVMHGDDAPQRGERLFVGLQHARLYNGDERIETRDEELALAQSA”, the “soluble on expression in E. coli” value is “soluble”.

In the case of “MGSDKIHHHHHHRFMRIMMTSVLNNTKTQKVKFWLLKNYLSPKFKETIPKLAEFYKFEFELVEYKWPKWLHKQTEKQRVMWGYKILFLDVLFPLNVDKIIFVDADQVVRADLQELMDFNLNGAPYGYVPFCESRTEMDGFRFWKSGYWKNHLMGRKYHISALYVVDLKAFREFSAGDRLRGRYDSLSADPNSLSNLDQDLPNNMLHEVPIKSLPQEWLWCETWCDDGSKEKAKTIDLCNNPLTKEPKLNSAKRIIKEWTEYDSEISKVLNSADINTPSPSVDRDEL”, the “soluble on expression in E. coli” value is listed as “not soluble”.

Regarding “IGDLSYSVSGNIATNNNEIVTLAGSDNMIQNGGDVVRYILKEGEAIGSYYGLETDGLYTQEEIDAGHYYKYGRKPNAGDIKYVPQRENVEWGDDITDDDRTIIGKDVPDFTYGININLQWKNFELSAFGQGVSGTSVAFESEQVFAFMLNSNPRKYHLSRWNEDNPNPNAACPRLYGGNYYDEYNKHFSDYQLFDADYFRIKTISLGYMVPKDAVTRWGLSSLKFFLTGENLFTFRADKDMKDFDPESSTGRGISAFGAKSVAFGVNVSF”, the “soluble on expression in E. coli” value was “not soluble”.

The record behind these values is the DeepSol protein solubility set.
